Measurements: US20260115255A1
Where two headings read alike, the source gives them in different places.

Columns and labels:
[1] = molecular target: FcγRIIIa V158 (human) (UniProt P08637); test: SPR; ratio of affinity (1/Kd) for FcγRIIIa V158 to affinity for FcγRIIb
[2] = molecular target: FcγRIIIa F158 (human) (UniProt P08637); test: SPR; ratio of affinity (1/Kd) for FcγRIIIa F158 to affinity for FcγRIIb
[3] = molecular target: PD-1 on PD-1 Effector Cells (UniProt Q15116); test: cell-based or functional assay
[4] = molecular target: IL-2/IL-15Rβγ on kit225 cells (UniProt P14784); test: cell-based or functional assay
[5] = molecular target: IL-2/IL-15Rβγ on kit225 cells (UniProt P14784); test: cell-based or functional assay; remark: listed apart in the source

Sequence of IL-2/IL-15Rβγ on kit225 cells (P14784 27-551 limits assumed, chain 1 of 2): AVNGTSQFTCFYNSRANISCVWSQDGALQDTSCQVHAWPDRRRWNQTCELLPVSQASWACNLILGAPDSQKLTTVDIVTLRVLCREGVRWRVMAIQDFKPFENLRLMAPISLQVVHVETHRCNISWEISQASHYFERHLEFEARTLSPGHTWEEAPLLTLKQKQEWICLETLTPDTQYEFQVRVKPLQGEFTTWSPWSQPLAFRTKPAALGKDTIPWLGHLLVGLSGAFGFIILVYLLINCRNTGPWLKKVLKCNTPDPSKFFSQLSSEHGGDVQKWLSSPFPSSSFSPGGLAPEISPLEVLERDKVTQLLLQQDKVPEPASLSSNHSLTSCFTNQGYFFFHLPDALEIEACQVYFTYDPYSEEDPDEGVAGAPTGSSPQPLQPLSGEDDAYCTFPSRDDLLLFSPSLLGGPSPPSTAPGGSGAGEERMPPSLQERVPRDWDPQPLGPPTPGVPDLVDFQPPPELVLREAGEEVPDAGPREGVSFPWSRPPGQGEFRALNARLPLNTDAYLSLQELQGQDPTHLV
Sequence of IL-2/IL-15Rβγ on kit225 cells (P31785 23-369 limits assumed, chain 2 of 2, further chain): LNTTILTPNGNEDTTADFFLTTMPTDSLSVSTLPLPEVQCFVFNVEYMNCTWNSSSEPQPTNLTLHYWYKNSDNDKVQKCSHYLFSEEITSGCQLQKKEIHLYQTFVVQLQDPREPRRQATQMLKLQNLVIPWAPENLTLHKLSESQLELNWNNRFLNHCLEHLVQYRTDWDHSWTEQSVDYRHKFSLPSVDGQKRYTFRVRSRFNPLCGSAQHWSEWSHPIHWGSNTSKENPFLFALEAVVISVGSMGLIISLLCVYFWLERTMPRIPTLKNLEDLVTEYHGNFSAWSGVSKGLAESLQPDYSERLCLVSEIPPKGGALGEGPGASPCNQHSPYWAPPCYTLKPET
Sequence of PD-1 on PD-1 Effector Cells (Q15116 25-288 limits assumed): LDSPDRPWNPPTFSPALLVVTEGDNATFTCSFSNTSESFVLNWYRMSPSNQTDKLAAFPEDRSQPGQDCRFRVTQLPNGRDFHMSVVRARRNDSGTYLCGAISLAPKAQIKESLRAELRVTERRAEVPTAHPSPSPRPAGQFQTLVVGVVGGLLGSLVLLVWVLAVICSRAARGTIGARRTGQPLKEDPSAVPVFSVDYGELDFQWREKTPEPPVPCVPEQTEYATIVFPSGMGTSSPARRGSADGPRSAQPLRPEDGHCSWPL

## Zolbetuximab (antibody)
[1]
  A/I (V158): 161
[2]
  A/I (F158): 32.9

## PD1-IL2v
[3]
  EC50, PD-1/PD-L1 Blockade Bioassay: 4.57 nM
  Relative potency vs Keytruda: 38.6%
[4]
  EC50 kit225 cells: 3.94 nM
  EC50 on kit225 cells: 3.02 nM
  Relative potency to SOT201: 455%
[5]
  EC50 kit225 cells: 3.02 nM
  Relative potency to SOT101: 1.19%

## SOT201 wt (with RLI2AQ)
[5]
  EC50 kit225 cells: 0.249 nM
  Relative potency to SOT101: 14.4%
